Experimental data: patent publication US20050176069A1 (PHARMACIA AND UPJOHN, published 2005)
Where no end group is shown, it is not given here.

How the values were obtained:
CEGPCR16 = target: T1, CEGPCR16 (C. elegans); assay: cell-based or functional assay
T1 chain: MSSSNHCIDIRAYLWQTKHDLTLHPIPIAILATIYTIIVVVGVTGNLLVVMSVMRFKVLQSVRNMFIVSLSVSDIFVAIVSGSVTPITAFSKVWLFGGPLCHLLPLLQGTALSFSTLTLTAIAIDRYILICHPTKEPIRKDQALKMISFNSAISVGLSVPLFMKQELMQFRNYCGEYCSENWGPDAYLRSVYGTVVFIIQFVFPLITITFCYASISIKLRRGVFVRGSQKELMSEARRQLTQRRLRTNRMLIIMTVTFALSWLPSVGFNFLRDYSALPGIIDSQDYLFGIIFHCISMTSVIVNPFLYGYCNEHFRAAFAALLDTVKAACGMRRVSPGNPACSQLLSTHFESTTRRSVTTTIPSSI

CEGPCR4 = target: T2, CEGPCR4 (C. elegans); assay: competition binding assay, CEGPCR4/CHO membranes, vs [125I-Y]DVPGVLRF-NH2
T2 construct: Expressed in CHO cells
T2 chain: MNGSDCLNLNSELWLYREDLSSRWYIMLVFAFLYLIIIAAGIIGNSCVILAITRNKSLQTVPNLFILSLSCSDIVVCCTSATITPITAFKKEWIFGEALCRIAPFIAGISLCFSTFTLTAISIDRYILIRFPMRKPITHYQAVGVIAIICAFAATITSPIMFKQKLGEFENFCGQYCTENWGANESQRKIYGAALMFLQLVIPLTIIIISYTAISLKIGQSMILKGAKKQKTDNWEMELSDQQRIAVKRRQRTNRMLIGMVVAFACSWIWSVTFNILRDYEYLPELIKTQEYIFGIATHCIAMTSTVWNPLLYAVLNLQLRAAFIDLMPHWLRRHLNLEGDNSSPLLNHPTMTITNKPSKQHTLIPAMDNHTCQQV

EC50, [35S]GTPγS assay (CEGPCR16): 64 nM
IC50 (CEGPCR4): 0.5 to 10 nM
Binder: SVPGVLRF-NH2 [SVPGVLRF-NH2]
